Assay results as given in the supplement of paper PMC10724198.
± gives the standard deviation of the averaged measurements.

Test system: Saccharomyces cerevisiae
Assay: protein stability index of tFT-peptide fusion (C-terminal peptide) (PSI (0-1 scale)); higher = more stable (slower turnover)
Details: genetic background: wild type; temperature: 30 C
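Note: PSI is a weighted mean of sequencing reads over stability bins, variants kept only with over 10 reads, mCherry proximal and sfGFP distal, peptide attached via GGGS linker.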

Row | Sequence | protein stability index
1 | PPPTPRIPRPLR | 0.717 ± 0.02
2 | PPPTPRRPPCHT | 0.668 ± 0.045
3 | PPPTVRLSCVPP | 0.794 ± 0.031
4 | PPPVLPPPPVSP | 0.719 ± 0.03
5 | PPPVLSPRFPVL | 0.731 ± 0.14
6 | PPPVRFPSLPLA | 0.8189 ± 0.0061
7 | PPPVVLPSTLLS | 0.6665 ± 0.0014
8 | PPRAHQSCPCRR | 0.719 ± 0.055
9 | PPRALPPPLPLP | 0.72 ± 0.083
10 | PPRCHPPPPFPP | 0.6466 ± 0.0047
11 | PPRGCLYFSRPP | 0.739 ± 0.095
12 | PPRGPPPPPADP | 0.7 ± 0.022
13 | PPRHPSPGLVPT | 0.722 ± 0.04
14 | PPRLLATVTRGT | 0.654 ± 0.025
15 | PPRLVPPLPPPL | 0.635 ± 0.048
16 | PPRPAPTSFKRG | 0.718 ± 0.037
17 | PPRPPPLLPRTL | 0.707 ± 0.014
18 | PPRPPPPPPAPL | 0.688 ± 0.019
19 | PPRPPPPRPPPL | 0.742 ± 0.028
20 | PPRPRSARLFLR | 0.728 ± 0.05
21 | PPRRPPPPPPLP | 0.7168 ± 0.0045
22 | PPRVVPDISTSL | 0.699 ± 0.039
23 | PPSATPPHPPPS | 0.666 ± 0.052
24 | PPSGSFLFSVHP | 0.734 ± 0.016
25 | PPSLFRFPPPPR | 0.709 ± 0.074
26 | PPSLPPHASPTP | 0.762 ± 0.079

Row | Sequence | protein stability index
27 | PPSNSFHSSIPY | 0.678 ± 0.02
28 | PPSPAFSSSLPP | 0.635 ± 0.025
29 | PPSPAPHATARP | 0.662 ± 0.062
30 | PPSPFHPPPPER | 0.551 ± 0.013
31 | PPSPPILPPRPP | 0.687 ± 0.015
32 | PPSPPPPSRPIH | 0.776 ± 0.021
33 | PPSPPPPYPAPP | 0.679 ± 0.015
34 | PPSPPRPHFPSL | 0.739 ± 0.042
35 | PPSPRPVPPPCH | 0.705 ± 0.072
36 | PPSPSFLPPPPP | 0.676 ± 0.024
37 | PPSQLPPPPASD | 0.746 ± 0.2
38 | PPSSGPPSPSSL | 0.578 ± 0.095
39 | PPSSPPHSRRHG | 0.664 ± 0.055
40 | PPSVPSRLSHVL | 0.69 ± 0.034
41 | PPTCRLQPYSRN | 0.759 ± 0.013
42 | PPTLVPPFPTKV | 0.742 ± 0.064
43 | PPTPPPPLPSSF | 0.77 ± 0.075
44 | PPTPRPHPPSRP | 0.758 ± 0.022
45 | PPTPSAPHRTRI | 0.732 ± 0.026
46 | PPTPSPAPSPAP | 0.601 ± 0.011
47 | PPTSHHHYHRQQ | 0.695 ± 0.053
48 | PPVGPPFPPLPH | 0.784 ± 0.13
49 | PPVLAPCLPLTG | 0.681 ± 0.067
50 | PPVLHSSEPPDS | 0.707 ± 0.024
51 | PPWPPLLPRPSP | 0.666 ± 0.03
52 | PQLCSPLITIGV | 0.5961 ± 0.0032

Row | Sequence | protein stability index
53 | PQLLGWCVGPCR | 0.694 ± 0.024
54 | PQPLNTLRLTSS | 0.671 ± 0.034
55 | PQSVMFFGAPVW | 0.687 ± 0.034
56 | PQTPPPLLPPSL | 0.671 ± 0.013
57 | PQTVAHPPPPPR | 0.688 ± 0.04
58 | PRAGPLAALSLS | 0.695 ± 0.026
59 | PRCIELASMRRP | 0.681 ± 0.068
60 | PRCVRFPPVTLL | 0.7393 ± 0.0036
61 | PRDQPPDGHASP | 0.6717 ± 0.002
62 | PREVGVYQQIRD | 0.63 ± 0.019
63 | PRFFCSGSSPLR | 0.721 ± 0.026
64 | PRFSFSGLPLPP | 0.681 ± 0.11
65 | PRFSLFSTDHYY | 0.679 ± 0.16
66 | PRGFVHLPPPYT | 0.756 ± 0.12
67 | PRGHLDEFCVVL | 0.705 ± 0.019
68 | PRGHPPIPPPLP | 0.69 ± 0.035
69 | PRGPPTPPLTSP | 0.669 ± 0.043
70 | PRGWAGGQITPR | 0.686 ± 0.03
71 | PRGYSASPNLTS | 0.716 ± 0.023
72 | PRIIPRLARPQS | 0.69 ± 0.014
73 | PRIKWKIQIIKK | 0.668 ± 0.011
74 | PRLPPPPTPPLP | 0.649 ± 0.16
75 | PRLPRRTTTIHG | 0.71 ± 0.035
76 | PRLSPPRSPSPP | 0.665 ± 0.0091
77 | PRLSSPAATSPP | 0.709 ± 0.012
78 | PRPAPHTGPSPG | 0.613 ± 0.029

Row | Sequence | protein stability index
79 | PRPCASALPPHP | 0.712 ± 0.051
80 | PRPCLPPDPPPS | 0.654 ± 0.0071
81 | PRPDSRTRLPRP | 0.661 ± 0.019
82 | PRPGSTTPPAYR | 0.7163 ± 0.0053
83 | PRPLTRPVPPLS | 0.68 ± 0.13
84 | PRPNGLSTDDLE | 0.729 ± 0.056
85 | PRPPANILPSAP | 0.713 ± 0.07
86 | PRPPHLPPPVPS | 0.7299 ± 0.0016
87 | PRPPLPLFPSSL | 0.723 ± 0.048
88 | PRPPPHPPPSPL | 0.50931 ± 0.00043
89 | PRPPPLPPPLPL | 0.5773 ± 0.0032
90 | PRPRLPVLPSPS | 0.641 ± 0.098
91 | PRPRPSPLPPPS | 0.751 ± 0.13
92 | PRPSPFIGLPFP | 0.749 ± 0.067
93 | PRQAPPSLPSPP | 0.697 ± 0.076
94 | PRRFPCRLRLGF | 0.702 ± 0.074
95 | PRSPARPPFPTP | 0.6835 ± 0.0049
96 | PRSPPCPLPPPL | 0.65 ± 0.11
97 | PRSRSHPLCSAP | 0.813 ± 0.062
98 | PRSSVPATPHRR | 0.72 ± 0.031
99 | PRSTWPFRLFVR | 0.531 ± 0.053
100 | PRTAAFDSLLPT | 0.688 ± 0.036
101 | PRVRSPLLSPPQ | 0.606 ± 0.017
